In PMC3787745, “Yeast Mnn9 is both a priming glycosyltransferase and an allosteric activator of mannan biosynthesis” (Open Biology, 2013):

Key:
[1] = substrate: Cc1cc(=O)oc2cc(O[C@H]3O[C@H](CO)[C@@H](O)[C@H](O)[C@@H]3O)ccc12; assay: coupled fluorimetric assay with Aman6 mannosidase (4-MU release); type: biochemical, Saccharomyces cerevisiae; conditions: acceptor varied 0-10 mM, 1.2 mM GDP-Man, 10 mM MnCl2, 20 mM HEPES pH 7.5, 500 nM enzyme
[2] = substrate: Nc1nc2c(ncn2[C@@H]2O[C@H](COP(=O)(O)OP(=O)(O)O[C@H]3O[C@H](CO)[C@@H](O)[C@H](O)[C@@H]3O)[C@@H](O)[C@H]2O)c(=O)[nH]1; assay: as above; type: biochemical, Saccharomyces cerevisiae; conditions: donor varied 0-1.2 mM, 10 mM 4MU-Man, 10 mM MnCl2, 20 mM HEPES pH 7.5, 500 nM enzyme

B1: ScMnn9 (Saccharomyces cerevisiae S288C) (protein)
chain: EGHIAHYDLNKLHSTSEAAVNKEHILILTPMQTFHQQYWDNLLQLNYPRELIELGFITPRTATGDLALKKLENAIKKVQTDKKTQRFSKITILRQNSQSFDKLMEKERHALDVQKERRAAMALARNELLFSTIGPHTSWVLWLDADIIETPPSLIQDMTKHNKAILAANIYQRFYDEEKKQPSIRPYDFNNWQESDTGLEIASQMGDDEIIVEGYAEIATYRPLMAHFYDANGVPGEEMALDGVGGGCTLVKAEVHRDGAMFPNFPFYHLIETEGFAKMAKRLNYDVFGLPNYLVYHIEEENH
notes: glycosyltransferase domain 93-395, lacking first 92 residues; N-terminal MBP-His6-TEV tag cleaved; E. coli BL21(DE3) pLysS
Km [1]: 6.5 (±0.3) mM
kcat [1]: 0.0033 s⁻¹
Km [2]: 0.5 (± 0.2) mM
kcat [2]: 0.0633 s⁻¹
